{"source": "patent US20070037861A1", "about": "“Enhanced method of treatment of growth disorders” (PFIZER HEALTH AB, priority 2003, published 2007)", "key": {"[1]": {"conditions": "animal model; without adverse effects on body weight and adipose tissue mass; cited from earlier work"}, "[2]": {"biological_target": "T1, GH receptors (Rattus norvegicus, UniProt P16310)", "T1 construct": "host or cells: rat hepatocytes", "T1 sequence (P16310 19-638)": "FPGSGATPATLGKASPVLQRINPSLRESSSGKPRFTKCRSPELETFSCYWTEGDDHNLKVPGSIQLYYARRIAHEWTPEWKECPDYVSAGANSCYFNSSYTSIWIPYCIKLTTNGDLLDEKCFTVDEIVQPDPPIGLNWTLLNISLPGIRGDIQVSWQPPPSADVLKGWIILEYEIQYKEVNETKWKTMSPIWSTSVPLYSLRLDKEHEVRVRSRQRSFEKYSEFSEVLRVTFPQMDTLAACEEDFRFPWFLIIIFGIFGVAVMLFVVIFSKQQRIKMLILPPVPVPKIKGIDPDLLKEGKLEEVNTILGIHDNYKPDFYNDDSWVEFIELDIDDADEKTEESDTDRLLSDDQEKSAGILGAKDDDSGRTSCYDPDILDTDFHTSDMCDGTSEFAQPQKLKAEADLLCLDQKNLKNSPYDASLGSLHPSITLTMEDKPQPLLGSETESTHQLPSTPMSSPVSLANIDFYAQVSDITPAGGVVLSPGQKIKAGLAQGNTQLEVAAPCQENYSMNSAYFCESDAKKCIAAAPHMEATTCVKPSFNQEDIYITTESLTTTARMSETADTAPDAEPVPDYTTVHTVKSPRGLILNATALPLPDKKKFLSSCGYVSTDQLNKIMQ", "conditions": "cited from earlier work"}, "[3]": {"biological_target": "T2, rat prolactin receptor (Rattus norvegicus, UniProt P05710)", "T2 construct": "host or cells: rat hepatocytes", "T2 sequence (P05710 20-310 isoform P05710-3 limits assumed)": "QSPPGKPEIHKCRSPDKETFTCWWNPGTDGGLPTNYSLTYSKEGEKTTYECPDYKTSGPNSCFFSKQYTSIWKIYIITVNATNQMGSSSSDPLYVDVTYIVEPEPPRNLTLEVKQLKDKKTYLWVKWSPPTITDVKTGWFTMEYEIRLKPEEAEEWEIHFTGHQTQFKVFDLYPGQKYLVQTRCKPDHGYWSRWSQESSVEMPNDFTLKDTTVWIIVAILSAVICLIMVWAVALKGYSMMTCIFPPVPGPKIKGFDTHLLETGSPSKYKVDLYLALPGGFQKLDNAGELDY", "conditions": "cited from earlier work"}, "[4]": {"conditions": "by inhibition of lipolysis; cited from earlier work"}, "[5]": {"conditions": "overnight administration; lean and obese nondiabetic subjects, impaired glucose tolerance or type 2 diabetes; cited from earlier work"}, "[6]": {"experiment": "Blood hematocrit (marker of plasma volume / fluid retention)", "format": "in vivo, Wistar rats", "conditions": "compared to saline; AD and SGA groups", "text": "A well-characterised effect of GH treatment is increased plasma volume (Johannsson et al, 2002). Decrease in blood hematocrit is a reliable marker of increase in plasma volume associated with fluid retentive effects of GH therapy."}, "[7]": {"experiment": "Tissue studies: organ and fat depot weights at termination", "format": "in vivo, Wistar rats", "method": "At termination animals were sacrificed by decapitation under halothane anaesthesia. Tissues (heart, liver, muscle and adipose (subcutaneous and visceral)) were collected, weighed and snap frozen in liquid nitrogen for subsequent analysis. An aliquot of liver tissue was also frozen at −20° C. for examining the growth hormone receptor using ligand-binding analysis."}, "[8]": {"experiment": "Body lengths (nose-anus) post-mortem and BMI", "format": "in vivo, Wistar rats", "method": "(§1) Body lengths (nose-anus and nose-tail) and bone length (tibial, femoral length) was assessed post-mortem using peripheral quantitative computed tomography (PQCT, Stratec) analysis. Bone density was also assessed via pQCT.\nA BMI was calculated using: body weight/nose-anus length (cm)2. […] Due to the lack of lipolysis in the GH and acipimox treated animals compared to GH treated, alterations in BMI probably reflect an enhancement of liner growth above that of GH alone."}, "[9]": {"system": "plasma glucose", "experiment": "Fasting plasma glucose", "format": "in vivo, Wistar rats", "conditions": "compared to controls", "method": "(§2) Blood samples were collected following overnight fast. Samples were collected from the tail vein and at termination following decapitation under halothane anaesthetic. Blood samples were collected into heparinised tubes and centrifuged for harvesting of plasma. Blood samples were then analysed for insulin, glucose, FFAs, leptin, IGF-I, glycerol, triglycerides, cholesterol, corticosterone, markers of hepatic function (ALT, AST, ALP), and for markers of protein synthesis.\n(§3) Plasma FFAs, triglycerides and glycerol were measured by diagnostic kit (Boehringer-Mannheim #1383175 and Sigma #337 respectively). Plasma leptin, insulin were measured using commercially available kits (inco, St Charles, Mo., US). Plasma IGF-I was measured by RIA as described previously (Vickers et al., 2000). Plasma glucose concentrations were measured using a colorimetric plate assay. All other plasma analytes (liver enzymes, electrolytes, etc.) were measured by a BM/Hitachi 737 analyser by Agriquality Laboratory Services (Auckland, New Zealand)."}, "[10]": {"system": "plasma triglycerides", "experiment": "Plasma triglycerides", "format": "in vivo, Wistar rats", "conditions": "compared to saline controls", "method": "as §2, §3"}, "[11]": {"experiment": "Systolic blood pressure by tail cuff plethysmography", "format": "in vivo, Wistar rats", "conditions": "SGA offspring", "method": "Systolic and diastolic blood pressure and heart rate were recorded by tail cuff plethysmography according to the manufacturer's instructions (Blood pressure analyser IITC, Life Science, Woodland Hills, Calif., USA). Rats were restrained in a clear plastic tube in a heated room (25-28° C.). After 10-15 minutes acclimatisation the cuff was placed on the tail and inflated to 240 mmHg. Pulses were recorded during deflation at a rate of 3 mmHg/sec and reappearance of a pulse was used to determine systolic blood pressure. A minimum of 3 clear systolic blood pressure recordings were taken per animal. Previous observations indicate that the coefficient of variation for repeated measurements is <5%."}, "[12]": {"system": "plasma leptin", "experiment": "Plasma leptin", "format": "in vivo, Wistar rats", "conditions": "compared to saline animals and animals that received GH and fibrate", "method": "as §2, §3"}, "[13]": {"experiment": "Tibial bone length, area and density by pQCT post-mortem", "format": "in vivo, Wistar rats", "conditions": "for Fisher's PLSD for TRABECULAR, Mean Diff.: effect: treatment, significance level 5%", "method": "as §1\nTibias were stored in 10% neutral buffered formalin. Tissue was stripped from the bone and bone length, area and density (cortical and trabecular) was assessed using pQCT (Stratec). […] Tibial length was highly correlated with total body (nose-anus) length (FIG. 5)."}, "[14]": {"system": "plasma IGF-I", "experiment": "Plasma IGF-I by RIA", "format": "in vivo, Wistar rats", "conditions": "compared to saline controls; AD and SGA animals; at time of sacrifice", "method": "as §2, §3"}}, "note": "Like-named read-outs stand apart in the source and are kept apart here."}
{"molecule": "CC(C)(Oc1ccc(C2CC2(Cl)Cl)cc1)C(=O)O", "note": "(stereo not shown) [ciprofibrate]", "values": [{"measurement": "insulin resistance", "setting": "[1]", "result": "reduce insulin resistance"}]}
{"molecule": "hGH: human growth hormone, lactogenic and somatogenic in the rat", "values": [{"measurement": "binding to GH receptors (somatogenic binding sites)", "setting": "[2]", "result": "binding to both prolactin receptors and GH receptors"}, {"measurement": "binding to prolactin receptor (lactogenic binding sites)", "setting": "[3]", "result": "binding to both prolactin receptors and GH receptors"}]}
{"molecule": "CCCCCCCN(CCc1ccc(SC(C)(C)C(=O)O)cc1)C(=O)Nc1ccc(F)cc1F", "note": "[GW9578]", "values": [{"measurement": "insulin resistance", "setting": "[1]", "result": "reduce insulin resistance"}]}
{"molecule": "Cc1cnc(C(=O)O)c[n+]1[O-]", "note": "[acipimox, 5-methylpyrazinecarboxylic acid 4-oxide]", "values": [{"measurement": "GH induced insulin resistance", "setting": "[4]", "result": "partially prevent"}, {"measurement": "insulin resistance", "setting": "[5]", "result": "reduce insulin resistance"}, {"measurement": "plasma FFA levels", "setting": "[5]", "result": "lower plasma FFA levels"}]}
{"molecule": "GH: Recombinant bovine growth hormone, a pure somatogen in the rat, given subcutaneously at 5 mg/kg/day (protein, UniProt P01246 27-217, looked up) Somatotropin: AFPAMSLSGLFANAVLRAQHLHQLAADTFKEFERTYIPEGQRYSIQNTQVAFCFSETIPAPTGKNEAQQKSDLELLRISLLLIQSWLGPLQFLSRVFTNSLVFGTSDRVYEKLKDLEEGILALMRELEDGTPRAGQILKQTYDKFDTNMRSDDALLKNYGLLSCFRKDLHKTETYLRVMKCRRFGEASCAF", "values": [{"measurement": "blood plasma hematocrit", "setting": "[6]", "result": "significantly reduced"}, {"measurement": "Relative kidney weight", "setting": "[7]; compared to saline controls", "result": "reduced"}, {"measurement": "retroperitoneal fat mass", "setting": "[7]; compared to saline controls", "result": "significantly reduced"}, {"measurement": "Relative liver weight", "setting": "[7]; relative to body weight, AD and SGA animals", "result": "no effect"}, {"measurement": "binding to prolactin receptor (lactogenic binding sites)", "setting": "[3]", "result": "not a ligand"}, {"measurement": "BMI", "setting": "[8]; compared to saline", "result": "not significantly different"}, {"measurement": "Nose anus lengths", "setting": "[8]; post-mortem, effect of treatment", "result": "significantly increased"}, {"measurement": "Fasting plasma glucose", "setting": "[9]", "result": "not significantly altered"}, {"measurement": "Plasma triglycerides", "setting": "[10]", "result": "no significant effect"}, {"measurement": "systolic blood pressure", "setting": "[11]", "result": "significantly reduced and normalised"}, {"measurement": "plasma leptin", "setting": "[12]", "result": "elevated"}, {"measurement": "Total bone density", "setting": "[13]; pQCT", "result": "trend (p=0.056) towards to drop"}, {"measurement": "trabecular bone mass", "setting": "[13]; pQCT, AD and SGA animals", "result": "significantly reduced"}, {"measurement": "Tibial length", "setting": "[13]; pQCT, effect of treatment, AD and SGA", "result": "significantly increased"}, {"measurement": "Fisher's PLSD for TRABECULAR, Mean Diff.", "setting": "[13]; versus GH/ACIP", "result": "−4.381"}, {"measurement": "Fisher's PLSD for TRABECULAR, Mean Diff.", "setting": "[13]; versus GH/FIB", "result": "−10.613"}, {"measurement": "Fisher's PLSD for TRABECULAR, Mean Diff.", "setting": "[13]; versus SALINE", "result": "−14.137"}, {"measurement": "Plasma IGF-I", "setting": "[14]", "result": "significantly increased"}]}
